# From article PMC9482650, “Quantitative fragmentomics allow affinity mapping of interactomes” (Nature Communications, 2022)
# Substitutions are numbered along the chain they refer to.
# T1: APBA1_1, Q02410
# T1 sequence (Q02410 651-752, limits assumed, looked up): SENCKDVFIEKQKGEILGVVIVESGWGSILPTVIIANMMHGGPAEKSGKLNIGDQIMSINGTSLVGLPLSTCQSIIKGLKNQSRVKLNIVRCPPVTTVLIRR
# T2: APBA1_2, Q02410
# T2 sequence (Q02410 742-832, limits assumed, looked up): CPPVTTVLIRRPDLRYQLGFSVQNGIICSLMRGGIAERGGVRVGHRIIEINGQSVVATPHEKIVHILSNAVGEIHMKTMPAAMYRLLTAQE
# T3: APBA2_2, Q99767
# T3 sequence (Q99767 654-744, limits assumed, looked up): T2 sequence (Q02410 742-832, limits assumed, looked up) with R10K, R15K, P59A, H65Q, I66A, A70S, Y84F, A89G
# T4: ARHGEF11, O15085
# T4 sequence (O15085 42-136, limits assumed, looked up): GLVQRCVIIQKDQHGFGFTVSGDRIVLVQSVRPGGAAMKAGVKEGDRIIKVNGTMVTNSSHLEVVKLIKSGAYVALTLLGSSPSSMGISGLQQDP
# T5: DFNB31_1, Q9P202
# T5 sequence (Q9P202 135-233, limits assumed, looked up): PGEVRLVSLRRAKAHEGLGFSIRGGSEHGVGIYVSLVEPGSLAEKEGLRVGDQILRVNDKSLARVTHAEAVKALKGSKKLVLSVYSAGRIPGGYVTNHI
# T6: DLG3_3, Q92796
# T6 sequence (Q92796 374-475, limits assumed, looked up): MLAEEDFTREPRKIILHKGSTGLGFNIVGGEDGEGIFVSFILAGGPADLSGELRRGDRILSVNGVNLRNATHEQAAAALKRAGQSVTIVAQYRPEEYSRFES
# T7: GRIP1_2, Q9Y3R0
# T7 sequence (Q9Y3R0 145-248, limits assumed, looked up): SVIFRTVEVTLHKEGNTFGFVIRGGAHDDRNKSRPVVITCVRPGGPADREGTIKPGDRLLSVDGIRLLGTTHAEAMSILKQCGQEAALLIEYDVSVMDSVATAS
# T8: GRIP1_3, Q9Y3R0
# T8 sequence (Q9Y3R0 247-346, limits assumed, looked up): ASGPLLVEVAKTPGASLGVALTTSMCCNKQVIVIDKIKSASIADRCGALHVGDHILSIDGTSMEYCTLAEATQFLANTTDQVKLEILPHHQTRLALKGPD
# T9: GRIP1_4, Q9Y3R0
# T9 sequence (Q9Y3R0 467-571, limits assumed, looked up): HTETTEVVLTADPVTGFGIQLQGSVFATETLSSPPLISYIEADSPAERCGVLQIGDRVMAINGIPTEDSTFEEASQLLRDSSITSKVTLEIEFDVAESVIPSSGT
# T10: HTRA4, P83105
# T10 sequence (P83105 378-476, limits assumed, looked up): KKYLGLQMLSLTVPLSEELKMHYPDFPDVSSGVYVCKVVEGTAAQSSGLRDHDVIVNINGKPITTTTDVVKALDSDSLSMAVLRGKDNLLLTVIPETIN
# T11: MPP6, Q9NZW5
# T11 sequence (Q9NZW5 125-219, limits assumed, looked up): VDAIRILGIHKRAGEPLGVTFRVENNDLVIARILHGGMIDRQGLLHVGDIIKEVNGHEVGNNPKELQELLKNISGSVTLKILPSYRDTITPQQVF
# T12: MPP7, Q5T2T1
# T12 sequence (Q5T2T1 134-230, limits assumed, looked up): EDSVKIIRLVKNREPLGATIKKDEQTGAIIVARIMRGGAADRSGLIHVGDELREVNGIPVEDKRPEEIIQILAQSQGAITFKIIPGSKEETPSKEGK
# T13: PDZD7_3, Q9H5P4
# T13 sequence (Q9H5P4 857-944, limits assumed, looked up): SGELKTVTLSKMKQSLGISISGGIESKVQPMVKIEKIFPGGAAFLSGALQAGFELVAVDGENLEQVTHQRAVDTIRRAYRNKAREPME
# T14: SNTG2, Q9NY99
# T14 sequence (Q9NY99 68-166, limits assumed, looked up): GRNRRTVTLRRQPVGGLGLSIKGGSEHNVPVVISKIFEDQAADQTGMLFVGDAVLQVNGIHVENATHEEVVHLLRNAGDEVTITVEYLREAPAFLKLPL
# B1: SLC16A7, O60669 (peptide)
# chain: SVTSERETNI
# B2: MKNK1, Q9BUB5 (peptide)
# chain: GEDRSPPTAL
# Target: T1, APBA1_1, Q02410
# Experiment: holdup assay
# Set-up: key: below the threshold = too weak to quantify, mostly under pKd 3.1 to 4
# Settings: plain residues with an end cap or a label only (N-terminal biotin on a linker: ado-ado)
row,Binder,pKd
1,B1,below the threshold
2,B2,below the threshold

# Target: T2, APBA1_2, Q02410
# Experiment: holdup assay
# Set-up: key: below the threshold = too weak to quantify, mostly under pKd 3.1 to 4
# Settings: plain residues with an end cap or a label only (N-terminal biotin on a linker: ado-ado)
row,Binder,pKd
1,B1,below the threshold
2,B2,4.34

# Target: T3, APBA2_2, Q99767
# Experiment: holdup assay
# Set-up: key: below the threshold = too weak to quantify, mostly under pKd 3.1 to 4
# Settings: plain residues with an end cap or a label only (N-terminal biotin on a linker: ado-ado)
row,Binder,pKd
1,B1,below the threshold
2,B2,below the threshold

# Target: T4, ARHGEF11, O15085
# Experiment: holdup assay
# Set-up: key: below the threshold = too weak to quantify, mostly under pKd 3.1 to 4
# Settings: plain residues with an end cap or a label only (N-terminal biotin on a linker: ado-ado)
row,Binder,pKd
1,B1,below the threshold
2,B2,4.01

# Target: T5, DFNB31_1, Q9P202
# Experiment: holdup assay
# Set-up: key: below the threshold = too weak to quantify, mostly under pKd 3.1 to 4
# Settings: plain residues with an end cap or a label only (N-terminal biotin on a linker: ado-ado)
row,Binder,pKd
1,B1,4.68
2,B2,below the threshold

# Target: DLG2_3, Q15700
# Experiment: holdup assay
# Set-up: key: below the threshold = too weak to quantify, mostly under pKd 3.1 to 4
# Settings: plain residues with an end cap or a label only (N-terminal biotin on a linker: ado-ado)
row,Binder,pKd
1,B1,3.62
2,B2,below the threshold

# Target: T6, DLG3_3, Q92796
# Experiment: holdup assay
# Set-up: key: below the threshold = too weak to quantify, mostly under pKd 3.1 to 4
# Settings: plain residues with an end cap or a label only (N-terminal biotin on a linker: ado-ado)
row,Binder,pKd
1,B1,below the threshold
2,B2,below the threshold

# Target: DLG5_1, Q8TDM6
# Sequence (Q8TDM6 617-713): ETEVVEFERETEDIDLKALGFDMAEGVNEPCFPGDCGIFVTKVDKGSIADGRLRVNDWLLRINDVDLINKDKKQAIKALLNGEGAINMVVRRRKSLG
# Experiment: holdup assay
# Set-up: key: below the threshold = too weak to quantify, mostly under pKd 3.1 to 4
# Settings: plain residues with an end cap or a label only (N-terminal biotin on a linker: ado-ado)
row,Binder,pKd
1,B1,below the threshold
2,B2,below the threshold

# Target: GRID2IP_2, A4D2P6
# Sequence (A4D2P6 272-370): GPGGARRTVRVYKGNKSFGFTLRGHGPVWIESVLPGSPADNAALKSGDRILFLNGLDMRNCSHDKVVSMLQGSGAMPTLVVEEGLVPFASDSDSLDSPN
# Experiment: holdup assay
# Set-up: key: below the threshold = too weak to quantify, mostly under pKd 3.1 to 4
# Settings: plain residues with an end cap or a label only (N-terminal biotin on a linker: ado-ado)
row,Binder,pKd
1,B1,below the threshold
2,B2,below the threshold

# Target: T7, GRIP1_2, Q9Y3R0
# Experiment: holdup assay
# Set-up: key: below the threshold = too weak to quantify, mostly under pKd 3.1 to 4
# Settings: plain residues with an end cap or a label only (N-terminal biotin on a linker: ado-ado)
row,Binder,pKd
1,B1,below the threshold
2,B2,below the threshold

# Target: T8, GRIP1_3, Q9Y3R0
# Experiment: holdup assay
# Set-up: key: below the threshold = too weak to quantify, mostly under pKd 3.1 to 4
# Settings: plain residues with an end cap or a label only (N-terminal biotin on a linker: ado-ado)
row,Binder,pKd
1,B1,below the threshold
2,B2,below the threshold

# Target: T9, GRIP1_4, Q9Y3R0
# Experiment: holdup assay
# Set-up: key: below the threshold = too weak to quantify, mostly under pKd 3.1 to 4
# Settings: plain residues with an end cap or a label only (N-terminal biotin on a linker: ado-ado)
row,Binder,pKd
1,B1,below the threshold
2,B2,below the threshold

# Target: GRIP2_5, Q9C0E4
# Sequence (Q9C0E4 544-642): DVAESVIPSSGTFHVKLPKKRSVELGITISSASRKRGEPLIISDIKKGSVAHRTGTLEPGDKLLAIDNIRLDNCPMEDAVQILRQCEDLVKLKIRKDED
# Experiment: holdup assay
# Set-up: key: below the threshold = too weak to quantify, mostly under pKd 3.1 to 4
# Settings: plain residues with an end cap or a label only (N-terminal biotin on a linker: ado-ado)
row,Binder,pKd
1,B1,below the threshold
2,B2,below the threshold

# Target: T10, HTRA4, P83105
# Experiment: holdup assay
# Set-up: key: below the threshold = too weak to quantify, mostly under pKd 3.1 to 4
# Settings: plain residues with an end cap or a label only (N-terminal biotin on a linker: ado-ado)
row,Binder,pKd
1,B1,below the threshold
2,B2,3.8

# Target: IL16_1, Q14005
# Sequence (Q14005 210-306): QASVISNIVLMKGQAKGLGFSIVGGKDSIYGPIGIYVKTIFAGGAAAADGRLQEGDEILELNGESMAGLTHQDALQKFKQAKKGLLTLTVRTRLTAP
# Experiment: holdup assay
# Set-up: key: below the threshold = too weak to quantify, mostly under pKd 3.1 to 4
# Settings: plain residues with an end cap or a label only (N-terminal biotin on a linker: ado-ado)
row,Binder,pKd
1,B1,below the threshold
2,B2,below the threshold

# Target: IL16_3, Q14005
# Sequence (Q14005 1107-1207): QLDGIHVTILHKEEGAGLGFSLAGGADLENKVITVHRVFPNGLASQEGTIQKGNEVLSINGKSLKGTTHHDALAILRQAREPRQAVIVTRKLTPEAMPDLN
# Experiment: holdup assay
# Set-up: key: below the threshold = too weak to quantify, mostly under pKd 3.1 to 4
# Settings: plain residues with an end cap or a label only (N-terminal biotin on a linker: ado-ado)
row,Binder,pKd
1,B1,below the threshold
2,B2,below the threshold

# Target: Inadl_4, Q8NI35
# Sequence (Q8NI35 547-651): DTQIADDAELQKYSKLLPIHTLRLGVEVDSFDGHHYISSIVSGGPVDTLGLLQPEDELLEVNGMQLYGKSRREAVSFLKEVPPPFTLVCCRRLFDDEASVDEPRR
# Experiment: holdup assay
# Set-up: key: below the threshold = too weak to quantify, mostly under pKd 3.1 to 4
# Settings: plain residues with an end cap or a label only (N-terminal biotin on a linker: ado-ado)
row,Binder,pKd
1,B1,below the threshold
2,B2,below the threshold

# Target: MAST1, Q9Y2H9
# Sequence (Q9Y2H9 962-1065): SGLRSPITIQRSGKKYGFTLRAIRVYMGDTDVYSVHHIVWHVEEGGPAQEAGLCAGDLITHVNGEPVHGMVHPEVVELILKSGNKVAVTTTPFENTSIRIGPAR
# Experiment: holdup assay
# Set-up: key: below the threshold = too weak to quantify, mostly under pKd 3.1 to 4
# Settings: plain residues with an end cap or a label only (N-terminal biotin on a linker: ado-ado)
row,Binder,pKd
1,B1,4.14
2,B2,4.1

# Target: T11, MPP6, Q9NZW5
# Experiment: holdup assay
# Set-up: key: below the threshold = too weak to quantify, mostly under pKd 3.1 to 4
# Settings: plain residues with an end cap or a label only (N-terminal biotin on a linker: ado-ado)
row,Binder,pKd
1,B1,3.52
2,B2,3.59

# Target: T12, MPP7, Q5T2T1
# Experiment: holdup assay
# Set-up: key: below the threshold = too weak to quantify, mostly under pKd 3.1 to 4
# Settings: plain residues with an end cap or a label only (N-terminal biotin on a linker: ado-ado)
row,Binder,pKd
1,B1,3.48
2,B2,below the threshold

# Target: NHERF2_2, Q15599
# Sequence (Q15599 142-238): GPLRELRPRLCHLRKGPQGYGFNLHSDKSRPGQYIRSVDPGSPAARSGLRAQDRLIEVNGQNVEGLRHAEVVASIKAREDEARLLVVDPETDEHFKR
# Experiment: holdup assay
# Set-up: key: below the threshold = too weak to quantify, mostly under pKd 3.1 to 4
# Settings: plain residues with an end cap or a label only (N-terminal biotin on a linker: ado-ado)
row,Binder,pKd
1,B1,below the threshold
2,B2,3.91

# Target: PARD3_3, Q8TEW0
# Sequence (Q8TEW0 582-685): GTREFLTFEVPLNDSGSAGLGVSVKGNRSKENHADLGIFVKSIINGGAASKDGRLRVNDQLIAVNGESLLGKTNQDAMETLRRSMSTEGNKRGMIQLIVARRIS
# Experiment: holdup assay
# Set-up: key: below the threshold = too weak to quantify, mostly under pKd 3.1 to 4
# Settings: plain residues with an end cap or a label only (N-terminal biotin on a linker: ado-ado)
row,Binder,pKd
1,B1,below the threshold
2,B2,below the threshold

# Target: T13, PDZD7_3, Q9H5P4
# Experiment: holdup assay
# Set-up: key: below the threshold = too weak to quantify, mostly under pKd 3.1 to 4
# Settings: plain residues with an end cap or a label only (N-terminal biotin on a linker: ado-ado)
row,Binder,pKd
1,B1,4.69
2,B2,3.8

# Target: T14, SNTG2, Q9NY99
# Experiment: holdup assay
# Set-up: key: below the threshold = too weak to quantify, mostly under pKd 3.1 to 4
# Settings: plain residues with an end cap or a label only (N-terminal biotin on a linker: ado-ado)
row,Binder,pKd
1,B1,4.51
2,B2,3.7
